Reference: the supplement of paper PMC7125110
± gives the standard error. Variants at the floor of the assay were thinned out.

B1: glmS ribozyme (parent)
chain: AUAAAAGCGCCAGAACUACAGAAAUGUAGUUGACGAGGAGGAGGUUUAUCGAAUUUUCGGCGGAUGCCUCCAAA

Experiments:
Conditions in all cases: with glucosamine-6-phosphate
glucosamine-6-phosphate [1] = variants of: B1; assay: self-cleavage kobs at 40 uM GlcN6P; higher = faster cleavage; RNA array
Procedure, shortened: (§1)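 Sequenced MiSeq chips were the platform: E. coli RNA polymerase transcribed barcoded ribozyme variants on them in situ, and a hybridised Cy3 probe tracked these at 37 °C. After glucosamine-6-phosphate (40 μM to 10 mM) in HEPES/KCl/Mg(OAc)2 buffer was flowed in, tiles were imaged over ~14 h. Signals normalised to baseline and to non-cleaving reference variants were reduced to per-tile medians and fit to one- or two-exponential decays to obtain kobs. kcat and KM were derived through weighted Michaelis–Menten fits across concentrations.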

glucosamine-6-phosphate [2] = variants of: B1; assay: self-cleavage kobs at 10000 uM GlcN6P; higher = faster cleavage; RNA array
Procedure, shortened: as §1

glucosamine-6-phosphate [3] = variants of: B1; assay: self-cleavage kobs at 160 uM GlcN6P; higher = faster cleavage; RNA array
Procedure, shortened: as §1

glucosamine-6-phosphate [4] = variants of: B1; assay: self-cleavage kobs at 640 uM GlcN6P; higher = faster cleavage; RNA array
Procedure, shortened: as §1

glucosamine-6-phosphate [5] = variants of: B1; assay: self-cleavage kobs at 2500 uM GlcN6P; higher = faster cleavage; RNA array
Procedure, shortened: as §1

Variant	self-cleavage kobs at 40 uM GlcN6P (glucosamine-6-phosphate [1]) [s⁻¹]	self-cleavage kobs at 10000 uM GlcN6P (glucosamine-6-phosphate [2]) [s⁻¹]	self-cleavage kobs at 160 uM GlcN6P (glucosamine-6-phosphate [3]) [s⁻¹]	self-cleavage kobs at 640 uM GlcN6P (glucosamine-6-phosphate [4]) [s⁻¹]	self-cleavage kobs at 2500 uM GlcN6P (glucosamine-6-phosphate [5]) [s⁻¹]
G7U G38U C71A	< 1e-05	< 1e-05	–	–	–
G7A A48C G59A A64G	< 1e-05	< 1e-05	–	–	–
A6U G44C	< 1e-05	–	< 1e-05	< 1e-05	< 1e-05
G7C C68A	< 1e-05	< 1e-05	< 1e-05	–	< 1e-05
A6U G13C U69C	< 1e-05	< 1e-05	–	–	–
A6G G63A	< 1e-05	< 1e-05	< 1e-05	< 1e-05	< 1e-05
G7A C16A U31C G32U G41C	< 1e-05	–	–	–	–
G7A G9U U31G G41A U65C	< 1e-05	–	< 1e-05	< 1e-05	–
G7U U57G C61A C68U C70U	5.84e-05 ± 2.5e-05	–	–	–	–
G7A A14C G40A U49A C71U	< 1e-05	–	–	–	–
G7U G40C G43C	< 1e-05	< 1e-05	–	–	–
A6U A42G G43C	< 1e-05	–	–	–	–
G7C G32A	< 1e-05	< 1e-05	< 1e-05	–	–
G7A G13U U55C	< 1e-05	< 1e-05	–	–	–
C8A C10A	< 1e-05	–	< 1e-05	< 1e-05	–
A6U A15C G32A G63C A64U	< 1e-05	–	–	–	–
G7A G35A A53C	< 1e-05	–	< 1e-05	< 1e-05	< 1e-05
A6G G44U C58U G63U	< 1e-05	–	–	–	< 1e-05
G7C C8G C50G U55A	7.03e-05 ± 2.9e-05	–	–	–	–
G7A G40C	< 1e-05	–	< 1e-05	< 1e-05	< 1e-05
G7C C16U U31A G41U	< 1e-05	< 1e-05	–	–	< 1e-05
G7U A12C C50G C61A	0.000187 ± 7.2e-05	0.000332 ± 0.00012	–	–	–
G7U A12C	< 1e-05	< 1e-05	< 1e-05	< 1e-05	< 1e-05

Variant	self-cleavage kobs at 40 uM GlcN6P (glucosamine-6-phosphate [1]) [s⁻¹]	self-cleavage kobs at 10000 uM GlcN6P (glucosamine-6-phosphate [2]) [s⁻¹]	self-cleavage kobs at 160 uM GlcN6P (glucosamine-6-phosphate [3]) [s⁻¹]	self-cleavage kobs at 640 uM GlcN6P (glucosamine-6-phosphate [4]) [s⁻¹]	self-cleavage kobs at 2500 uM GlcN6P (glucosamine-6-phosphate [5]) [s⁻¹]
G7C C11A	< 1e-05	< 1e-05	< 1e-05	< 1e-05	–
G7C C11U	< 1e-05	< 1e-05	< 1e-05	< 1e-05	< 1e-05
A6G U49C	< 1e-05	–	< 1e-05	< 1e-05	< 1e-05
G7U G13A A15U U31G U49G C67A	< 1e-05	–	–	–	–
A6U G7C	< 1e-05	< 1e-05	–	< 1e-05	< 1e-05
G7C C16G C61A	< 1e-05	< 1e-05	–	< 1e-05	< 1e-05
A6U G40U U56A	< 1e-05	–	–	< 1e-05	–
G7U U45G C61A	< 1e-05	< 1e-05	–	–	–
A6G G43U C67U	< 1e-05	< 1e-05	< 1e-05	< 1e-05	–
G7C A15C	< 1e-05	< 1e-05	< 1e-05	< 1e-05	< 1e-05
A6G U31A G32U	< 1e-05	< 1e-05	< 1e-05	< 1e-05	< 1e-05
A6G U31G C34G	< 1e-05	< 1e-05	–	< 1e-05	–
G7C A33U G41A U56A C71U	< 1e-05	–	–	–	–
A6U A33U G38U	< 1e-05	–	< 1e-05	< 1e-05	–
G7A C8A A42C U69A	< 1e-05	< 1e-05	–	–	–
G7A A33U A52U C70U	< 1e-05	–	–	–	< 1e-05
G7A C50G C71U	0.000141 ± 3.5e-05	9.72e-05 ± 2.2e-05	0.000482 ± 9.3e-05	0.000136 ± 3.9e-05	0.000177 ± 3.7e-05
A6U C8G A48U G62C	< 1e-05	–	–	–	–
G7C G9C A15U	< 1e-05	< 1e-05	–	–	–
G7U A53U U57A	< 1e-05	–	–	–	–
G7C A52C	< 1e-05	–	< 1e-05	< 1e-05	< 1e-05
G7U G35C U57A	< 1e-05	–	–	–	< 1e-05
C8A A15U U31A G41U C50U G51U G62A	< 1e-05	< 1e-05	–	–	< 1e-05
